{"source": "patent US4638005A", "about": "“Monoquaternized pyrazinium compounds and their use as electron carriers in photosynthetic processes” (The Coca-Cola Company, priority 1983, dated 1987)", "key": {"[1]": {"details": "cited from earlier work"}, "nitrogenase [2]": {"target": "T1, nitrogenase (Azotobacter vinelandii, UniProt P00459)", "T1 construct": "the nitrogenase sample was prepared from a culture of Azotobacter vinelandii; endogenous in cells; host or cells: Azotobacter vinelandii culture; French press lysate, 10,000 x g supernatant (crude)", "T1 sequence (P00459 2-290 limits assumed)": "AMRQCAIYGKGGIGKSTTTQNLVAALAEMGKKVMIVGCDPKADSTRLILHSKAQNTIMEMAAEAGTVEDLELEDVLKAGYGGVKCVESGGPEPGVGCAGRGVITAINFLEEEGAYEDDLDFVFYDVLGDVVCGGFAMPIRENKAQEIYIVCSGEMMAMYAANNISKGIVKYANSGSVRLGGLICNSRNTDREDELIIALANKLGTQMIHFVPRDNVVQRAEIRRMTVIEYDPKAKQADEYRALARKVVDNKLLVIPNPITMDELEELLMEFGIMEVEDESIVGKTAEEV", "experiment": "Chloroplast-coupled evolution of hydrogen by nitrogenase in the absence of substrate", "type": "biochemical", "details": "Table II, hydrogen evolution", "procedure,_shortened": "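Hydrogen evolution was measured with Azotobacter vinelandii crude extract (10,000 × g supernatant, 40 mg/ml protein) driven by illuminated heat-inactivated spinach chloroplasts, with nitrogen and acetylene excluded. Synthetic carriers were tested as 2 mM aqueous solutions, at concentrations chosen for carrier saturation; clostridial ferredoxin (0.2 mM) served as the standard.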"}, "[3]": {"experiment": "Polarographic half-wave potential (first wave reduction)", "type": "physicochemical", "details": "0.1 M phosphate buffer pH 7.55, 25° C.", "from_the_text": "Sci., 65, 1471(1976). Therefore, it was of interest to measure polarographically the half-wave potentials of the several pyrazinium salts under consideration, to determine the possible effect of structure upon their redox potentials."}, "nitrogenase [4]": {"target": "T1, nitrogenase", "experiment": "Chloroplast-coupled reduction of acetylene to ethylene by nitrogenase (electron carrier bioassay of Benemann)", "type": "biochemical", "procedure,_shortened": "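Spinach chloroplasts (heat-inactivated, per Benemann) under illumination couple electrons via the carrier to crude A. vinelandii nitrogenase extract (French-press supernatant, 40 mg/ml protein). Synthetic carriers tested as 2 mM aqueous solutions, clostridial ferredoxin standard at 0.2 mM, chosen for carrier saturation; ethylene formed from acetylene reported as nmol/mg protein/min.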"}}}
{"substance": "Clostridial Ferredoxin: the standard, clostridial ferredoxin; natural protein electron carrier, used in 0.2 mM aqueous solution (AYKIADSCVSCGACASECPVNAISQGDSIFVIDADTCIDCGNCANVCPVGAPVQE; UniProt P00195 2-56, looked up) [reference compound]", "values": [{"measurement": "midpoint potential", "setting": "[1]; natural electron carriers for the nitrogenase", "value": -570, "unit": "mV"}, {"measurement": "half-wave potential", "setting": "[1]; pH 7.52", "value": -570, "unit": "mV"}, {"measurement": "ACTIVITY RELATIVE TO FERREDOXIN (%)", "setting": "nitrogenase [2]", "value": 100, "unit": "%"}, {"measurement": "ACTIVITY (nmoles H2 /mg protein/min)", "setting": "nitrogenase [2]; no nitrogen or acetylene, synthetic carriers 2 mM, ferredoxin 0.2 mM", "value": 26.7, "unit": "nmoles H2 /mg protein/min"}, {"measurement": "E1/2 vs. SCE (mV)", "setting": "[3]", "value": -570, "unit": "mV"}, {"measurement": "ACTIVITY RELATIVE TO FERREDOXIN (%)", "setting": "nitrogenase [4]; Table I, acetylene reduction to ethylene", "value": 100, "unit": "%"}, {"measurement": "ACTIVITY (nmoles C2 H4 /mg protein/min)", "setting": "nitrogenase [4]; Table I, illuminated spinach chloroplasts, synthetic carriers 2 mM, clostridial ferredoxin 0.2 mM", "value": "13.5 nmoles C2 H4 /mg protein/min"}, {"measurement": "ETHYLENE FORMATION % Ferredoxin Activity", "setting": "nitrogenase [4]; Table III ranking", "value": 100, "unit": "%"}, {"measurement": "% FERREDOXIN ACTIVITY", "setting": "nitrogenase [4]; Table IV, acetylene reduction", "value": 100, "unit": "%"}]}
